What was measured:
[1] = biological target: H3–K27 substrate peptide of the sensor (no NLS); experiment: split reporter
[2] = biological target: H3–K9 substrate peptide of the sensor with C-terminal NLS (NhRluc8.6-Suv39H1–H3–K9-ChRLuc-NLS); experiment: split reporter

| reconstituted RLuc signal (RLU/μg protein) [1] | reconstituted RLuc signal [2] | reconstituted RLuc signal (RLU/μg protein) [2] | Substance |
| --- | --- | --- | --- |
| 3.67e+07 |  |  | Pc2 chromodomain in the H3–K27 sensor (domain or fragment) |
|  | 3.3e+06 | 5.26e+06 | Suv39H1 chromodomain in the H3–K9 sensor (NhRluc8.6-Suv39H1–H3–K9-ChRLuc) (domain or fragment) |
|  | 1.75e+06 |  | Suv39H1 chromodomain mutant (W64A, W74A) in the H3–K9 sensor (domain or fragment) |

Source: PMC4303335
